US20170189504A1

B1: SEQ ID NO: 185 peptide … (peptide)
peptide: IYKVGAPTI
B2: SEQ ID NO: 219 peptide … (peptide)
peptide: EYPLVINTL
B3: SEQ ID NO: 224 peptide … (peptide)
peptide: QYLENLEKL
B4: SEQ ID NO: 216 peptide … (peptide)
peptide: QYSSVFKSL
B5: SEQ ID NO: 161 peptide … (peptide)
peptide: IYLVSIPEL
B6: SEQ ID NO: 160 peptide … (peptide)
peptide: VYTLDIPVL
B7: SEQ ID NO: 225 peptide … (peptide)
peptide: YYVYIMNHL
B8: SEQ ID NO: 183 peptide … (peptide)
peptide: VFTSTARAF
B9: SEQ ID NO: 203 peptide … (peptide)
peptide: FYSRLLQKF
B10: SEQ ID NO: 170 peptide … (peptide)
peptide: VYEDQVGKF
B11: SEQ ID NO: 283 peptide … (peptide)
peptide: TYGDAGLTYTF
B12: SEQ ID NO: 197 peptide … (peptide)
peptide: EYSLFPGQVVI
B13: SEQ ID NO: 173 peptide … (peptide)
peptide: IYSWILDHF
B14: SEQ ID NO: 223 peptide … (peptide)
peptide: KYIPYKYVI
B15: SEQ ID NO: 190 peptide … (peptide)
peptide: GFFIFNERF
B16: SEQ ID NO: 282 peptide … (peptide)
peptide: KFVDSTFYL
B17: SEQ ID NO: 272 peptide … (peptide)
peptide: QYLQDAYSF
B18: SEQ ID NO: 205 peptide … (peptide)
peptide: VHIPEVYLI
B19: SEQ ID NO: 159 peptide … (peptide)
peptide: LYNKGFIYL
B20: SEQ ID NO: 177 peptide … (peptide)
peptide: VYPWLGALL
B21: SEQ ID NO: 167 peptide … (peptide)
peptide: NYINRILKL
B22: SEQ ID NO: 191 peptide … (peptide)
peptide: VFKASKITF
B23: SEQ ID NO: 179 peptide … (peptide)
peptide: MYDSYWRQF
B24: SEQ ID NO: 175 peptide … (peptide)
peptide: YYEVHKELF
B25: SEQ ID NO: 187 peptide … (peptide)
peptide: TYLRDQHFL
B26: SEQ ID NO: 180 peptide … (peptide)
peptide: IYDDSFIRPVTF
B27: SEQ ID NO: 172 peptide … (peptide)
peptide: TYTTVPRVAF
B28: SEQ ID NO: 182 peptide … (peptide)
peptide: IYQLDTASI
B29: SEQ ID NO: 186 peptide … (peptide)
peptide: IFPQFLYQF
B30: SEQ ID NO: 193 peptide … (peptide)
peptide: RFHPTPLLL
B31: SEQ ID NO: 178 peptide … (peptide)
peptide: IFIEVFSHF
B32: SEQ ID NO: 165 peptide … (peptide)
peptide: DYTTWTALL
B33: SEQ ID NO: 221 peptide … (peptide)
peptide: RYSTGLAGNLL
B34: SEQ ID NO: 195 peptide … (peptide)
peptide: TYSVSFPMF
B35: SEQ ID NO: 211 peptide … (peptide)
peptide: YYLEVGKTLI
B36: SEQ ID NO: 276 peptide … (peptide)
peptide: VYGFQWRHF
B37: SEQ ID NO: 275 peptide … (peptide)
peptide: EYINQGDLHEF
B38: SEQ ID NO: 181 peptide … (peptide)
peptide: LYLDIINLF
B39: SEQ ID NO: 273 peptide … (peptide)
peptide: TYIKPISKL
B40: SEQ ID NO: 274 peptide … (peptide)
peptide: AYLHSHALI
B41: SEQ ID NO: 162 peptide … (peptide)
peptide: VFTRVSSFL
B42: SEQ ID NO: 210 peptide … (peptide)
peptide: IYTMIYRNL
B43: SEQ ID NO: 176 peptide … (peptide)
peptide: EYNQWFTKL
B44: SEQ ID NO: 168 peptide … (peptide)
peptide: KYQDILETI
B45: SEQ ID NO: 227 peptide … (peptide)
peptide: IFLDYEAGTLSF
B46: SEQ ID NO: 228 peptide … (peptide)
peptide: KYTSWYVAL
B47: SEQ ID NO: 289 peptide … (peptide)
peptide: KYPVEWAKF
B48: SEQ ID NO: 164 peptide … (peptide)
peptide: KFSSFSLFF
B49: SEQ ID NO: 215 peptide YFDKVVTL (peptide)
peptide: YFDKVVTL
B50: SEQ ID NO: 217 peptide … (peptide)
peptide: FFPPTRQMGLLF
B51: SEQ ID NO: 192 peptide … (peptide)
peptide: SYALLTYMI
B52: SEQ ID NO: 196 peptide … (peptide)
peptide: LYIDRPLPYL
B53: SEQ ID NO: 206 peptide … (peptide)
peptide: EYQENFLSF
B54: SEQ ID NO: 166 peptide … (peptide)
peptide: YYVESGKLF
B55: SEQ ID NO: 284 peptide … (peptide)
peptide: RYLNKAFHI
B56: SEQ ID NO: 198 peptide … (peptide)
peptide: LYLDKATLI
B57: SEQ ID NO: 279 peptide … (peptide)
peptide: TYIESASEL
B58: SEQ ID NO: 271 peptide … (peptide)
peptide: LYHDIFSRL
B59: SEQ ID NO: 188 peptide RYFKGLVF (peptide)
peptide: RYFKGLVF
B60: SEQ ID NO: 194 peptide … (peptide)
peptide: EFGSLHLEFL
B61: SEQ ID NO: 169 peptide … (peptide)
peptide: AYTLIAPNI
B62: SEQ ID NO: 158 peptide … (peptide)
peptide: HYSQELSLLYL
B63: SEQ ID NO: 267 peptide … (peptide)
peptide: KYMVYPQTF
B64: SEQ ID NO: 208 peptide … (peptide)
peptide: TYTQDFNKF
B65: SEQ ID NO: 226 peptide … (peptide)
peptide: VYRDETGELF
B66: SEQ ID NO: 171 peptide … (peptide)
peptide: LFIPSSKLLFL
B67: SEQ ID NO: 189 peptide … (peptide)
peptide: WYVNGVNYF
B68: SEQ ID NO: 163 peptide … (peptide)
peptide: DYLKGLASF
B69: SEQ ID NO: 214 peptide … (peptide)
peptide: LYLKLWNLI
B70: SEQ ID NO: 278 peptide … (peptide)
peptide: RYISDQLFTNF
B71: SEQ ID NO: 288 peptide … (peptide)
peptide: VYVSDIQEL
B72: SEQ ID NO: 286 peptide … (peptide)
peptide: RYPDNLKHL
B73: SEQ ID NO: 184 peptide … (peptide)
peptide: VFQNFPLLF
B74: SEQ ID NO: 280 peptide … (peptide)
peptide: RYPDNLKHLYL
B75: SEQ ID NO: 174 peptide … (peptide)
peptide: VYVGGGQIIHL

What follows are binders tested against HLA-A*24 (human) (assay: UV-ligand exchange, anti-b2m ELISA).

**Q.** How did the peptide exchange yield turn out when B1 was run?
**A.** 50 to 75%

**Q.** How did the peptide exchange yield turn out when B2 was run?
**A.** 50 to 75%

**Q.** B3 was tested. Which peptide exchange yield did it give?
**A.** 50 to 75%

**Q.** Which peptide exchange yield does the source give for B4 here?
**A.** > 75%

**Q.** Which peptide exchange yield does the source give for B5 here?
**A.** > 75%

**Q.** For B6, which peptide exchange yield is on record?
**A.** > 75%

**Q.** How did the peptide exchange yield turn out when B7 was run?
**A.** 50 to 75%

**Q.** B8 was tested. Which peptide exchange yield did it give?
**A.** 50 to 75%

**Q.** With B9 as the binder, how does the peptide exchange yield read?
**A.** 50 to 75%

**Q.** With B10 as the binder, how does the peptide exchange yield read?
**A.** 20 to 49%

**Q.** How did the peptide exchange yield turn out when B11 was run?
**A.** 50 to 75%

**Q.** B12 was tested. Which peptide exchange yield did it give?
**A.** 50 to 75%

**Q.** For B13, which peptide exchange yield is on record?
**A.** > 75%

**Q.** For B14, which peptide exchange yield is on record?
**A.** 50 to 75%

**Q.** How did the peptide exchange yield turn out when B15 was run?
**A.** 50 to 75%

**Q.** B16 was tested. Which peptide exchange yield did it give?
**A.** > 75%

**Q.** Which peptide exchange yield does the source give for B17 here?
**A.** > 75%

**Q.** How did the peptide exchange yield turn out when B18 was run?
**A.** 50 to 75%

**Q.** For B19, which peptide exchange yield is on record?
**A.** > 75%

**Q.** B20 was tested. Which peptide exchange yield did it give?
**A.** > 75%

**Q.** B21 was tested. Which peptide exchange yield did it give?
**A.** > 75%

**Q.** How did the peptide exchange yield turn out when B22 was run?
**A.** 50 to 75%

**Q.** Which peptide exchange yield does the source give for B23 here?
**A.** > 75%

**Q.** B24 was tested. Which peptide exchange yield did it give?
**A.** > 75%

**Q.** Which peptide exchange yield does the source give for B25 here?
**A.** > 75%

**Q.** For B26, which peptide exchange yield is on record?
**A.** 50 to 75%

**Q.** How did the peptide exchange yield turn out when B27 was run?
**A.** > 75%

**Q.** With B28 as the binder, how does the peptide exchange yield read?
**A.** 50 to 75%

**Q.** How did the peptide exchange yield turn out when B29 was run?
**A.** > 75%

**Q.** For B30, which peptide exchange yield is on record?
**A.** > 75%

**Q.** How did the peptide exchange yield turn out when B31 was run?
**A.** 50 to 75%

**Q.** How did the peptide exchange yield turn out when B32 was run?
**A.** > 75%

**Q.** B33 was tested. Which peptide exchange yield did it give?
**A.** 50 to 75%

**Q.** How did the peptide exchange yield turn out when B34 was run?
**A.** > 75%

**Q.** How did the peptide exchange yield turn out when B35 was run?
**A.** > 75%

**Q.** With B36 as the binder, how does the peptide exchange yield read?
**A.** > 75%

**Q.** B37 was tested. Which peptide exchange yield did it give?
**A.** 50 to 75%

**Q.** Which peptide exchange yield does the source give for B38 here?
**A.** > 75%

**Q.** With B39 as the binder, how does the peptide exchange yield read?
**A.** 50 to 75%

**Q.** How did the peptide exchange yield turn out when B40 was run?
**A.** > 75%

**Q.** B41 was tested. Which peptide exchange yield did it give?
**A.** 50 to 75%

**Q.** How did the peptide exchange yield turn out when B42 was run?
**A.** > 75%

**Q.** For B43, which peptide exchange yield is on record?
**A.** 50 to 75%

**Q.** With B44 as the binder, how does the peptide exchange yield read?
**A.** > 75%

**Q.** How did the peptide exchange yield turn out when B45 was run?
**A.** > 75%

**Q.** With B46 as the binder, how does the peptide exchange yield read?
**A.** > 75%

**Q.** With B47 as the binder, how does the peptide exchange yield read?
**A.** > 75%

**Q.** How did the peptide exchange yield turn out when B48 was run?
**A.** 50 to 75%

**Q.** With B49 as the binder, how does the peptide exchange yield read?
**A.** 20 to 49%

**Q.** B50 was tested. Which peptide exchange yield did it give?
**A.** > 75%

**Q.** How did the peptide exchange yield turn out when B51 was run?
**A.** > 75%

**Q.** With B52 as the binder, how does the peptide exchange yield read?
**A.** 50 to 75%

**Q.** B53 was tested. Which peptide exchange yield did it give?
**A.** 50 to 75%

**Q.** How did the peptide exchange yield turn out when B54 was run?
**A.** > 75%

**Q.** How did the peptide exchange yield turn out when B55 was run?
**A.** 50 to 75%

**Q.** B56 was tested. Which peptide exchange yield did it give?
**A.** 50 to 75%

**Q.** For B57, which peptide exchange yield is on record?
**A.** 50 to 75%

**Q.** Which peptide exchange yield does the source give for B58 here?
**A.** > 75%

**Q.** With B59 as the binder, how does the peptide exchange yield read?
**A.** 50 to 75%

**Q.** With B60 as the binder, how does the peptide exchange yield read?
**A.** < 20%

**Q.** Which peptide exchange yield does the source give for B61 here?
**A.** 50 to 75%

**Q.** For B62, which peptide exchange yield is on record?
**A.** > 75%

**Q.** With B63 as the binder, how does the peptide exchange yield read?
**A.** > 75%

**Q.** How did the peptide exchange yield turn out when B64 was run?
**A.** 50 to 75%

**Q.** With B65 as the binder, how does the peptide exchange yield read?
**A.** 50 to 75%

**Q.** B66 was tested. Which peptide exchange yield did it give?
**A.** 50 to 75%

**Q.** With B67 as the binder, how does the peptide exchange yield read?
**A.** 20 to 49%

**Q.** How did the peptide exchange yield turn out when B68 was run?
**A.** > 75%

**Q.** For B69, which peptide exchange yield is on record?
**A.** 50 to 75%

**Q.** For B70, which peptide exchange yield is on record?
**A.** > 75%

**Q.** B71 was tested. Which peptide exchange yield did it give?
**A.** 50 to 75%

**Q.** Which peptide exchange yield does the source give for B72 here?
**A.** 20 to 49%

**Q.** B73 was tested. Which peptide exchange yield did it give?
**A.** > 75%

**Q.** How did the peptide exchange yield turn out when B74 was run?
**A.** > 75%

**Q.** For B75, which peptide exchange yield is on record?
**A.** 50 to 75%
